This data set deals with the molecule itself. Description: cryo-EM structure; 3 mg/ml SLC9C1 in GDN detergent (50 mM Tris-HCl pH 7.5, 150 mM NaCl, 0.02% GDN); C2 symmetry, symmetry expansion and masked refinement for the VSDs.

B1: Strongylocentrotus purpuratus (sea urchin) SLC9C1, full length, GFP-TwinStrep tag removed by TEV (natural protein, UniProt A3RL54 30-1325, looked up)
chain: SSGGSGHTPTTQATHADDHDLTTHNGTEEHDDGHDDGHDDLHAHAPKVIVFISGSCLFGAISRSLFKKLPIPYTVVLLILGAILGVVASNVPLVEEHTRDVAHMDPHVLLQIFLPVLIFESAFAMDVHTFMRSFSQVCILALFGLVVASVLTAVLAMNLFNYNWNFSEAMMFGAIMSATDPVAVVALLKDLGASKQLGTIIEGESLLNDGCAIVIFNVFMKMVFFPQLTSTVGQNVLYFLQVAVAGPLWGYAVAKVTVFFLSHIFNDALVEITITLAATYLTYYIGDIWLEVSGVLAVVVLGLIVNAEKTSISPEVEVFLHRFWEMLAYLANTLIFMMVGVVVTQKALVAVDKMDWFYLIILYLAITIIRGMVISLFSPILSRIGYGLTWRNAVIMTWGGLRGAVGLALALVVENLAGNDVIGSKFLFHTAGIVVLTLVINATTIQTLLRILGMSDISIPKRLAMAGAVRRIHEGQNRTLNMLKSDRFLADADWDIATAACEISDPYSALSDDENAPADELTLGERKSVCPGCKAMVPNEPSPREFADMMEEARLRMLKAEKISYWKQFEHGMLAREALRLLVQHAEVAADEKDQFILVDDLKKSWQIKGIYPWLKRKLEDLISEKKIAAIPMPKYKLGKLMYKICHHMAFEVTINIAIVLNIVPIIMEFVVQDKMASVSTMAAPGSTVSSEPSSLQKIEDALRISNYVFFVIYAIEAIVKILGLGRHYIVSHWNKFDAFILVVALVDIIIAETLLKGSITINLSSIKVVKLFRLLRGLRMLRLTKALIPKLILVVNGKINNQLSLGYDVGKGYIIGEEEVGKIIDRMVDNKKILRELKHISETGRLQVVKELGLLQREHPGIAVSVKTRQAIRTILNHSRETIHELQGAGLLDEMEAHKLELTVEIKMKRLMNAPSSIPPPPPENLLKNVSWLAGDMKLIDFIKARASLLHFDYGEVIVREGDESDGLFLIVSGLVKLYGKSAFLDHDNPPVTAGSEENEVFEDYLTVGNVIGEMGVLTKKPRNATVTCETTVQVYFITAEDMNIAIDTFTLYPSLEYRLWRVVAIRIATPLIMEQMAFQGWTQEKVKLHLERGYLVDLAESHFQFNIDATLEDVILINGTAYNAHTREEIRSPCLISRTVHKLTFQYTATEEPRLFVVRNAEYNGPILDGRLDVDSKRSLISITEISSNMCLKHAAELRQKNSKVMLSRKSSGAAAKEEEDCIPNTSDVEQAAGVSPSVPTKTTPKPKSFLPSLGLSMSKERVNGEAVEESPVKTKQGEETPETEEGAAPRVNV
notes: synthesised gene in pcDNA3.1(+); A TEV recognition site follows the protein; what is left of it after cleavage stays at the C terminus; also called sperm-specific Na+/H+ exchanger SLC9C1; SLC9C1(WT); source: for one sample further reconstituted into MSP1E2 nanodiscs with yeast polar lipids; not shown: eGFP, C-terminal, cleaved; TwinStrep, C-terminal, cleaved; His8, C-terminal, cleaved
Take B1: the stoichiometry N (as a rule, the number of molecules, sites or subunits per partner or assembly) worked out at 2.

The values are drawn from PMC10620092, “Structure and electromechanical coupling of a voltage-gated Na^+/H^+ exchanger” (Nature, 2023).
